{
  "source": "paper PMC9976613",
  "about": "(Journal of structural biology, 2018)",
  "biological_target": "the molecule itself",
  "test": "crystal structure",
  "data": [
    {"protein": "His6-DcrBΔ37 (domain or fragment, Salmonella enterica, UniProt Q7CPJ3 38-185, looked up) ASGQPISLMDGKLSFSLPADMTDQSGKLGTQANNMHVYSDPTGQKAVIVIVGDNTDEALPVLANRLLEQQRSRDPQLQVVTNKSIELKGHTLQQLDSIISAKGQTAYSSIVLGKVDNQLLTIQVTLPADNQQKAQTTAENIINTLVIK", "values": [
      {"measurement": "binding result", "result": "binds"}
    ]}
  ]
}
